Numbering of substitutions follows the chain as printed. Blank lines part the entries; values can stand above or below the binder they belong to.
What was measured:
BSA-glutathione (bovine) [1] = molecular target: BSA-glutathione (bovine) (UniProt P02769); assay: ELISA, culture supernatant on BSA-GSH plates without mercury
BSA-glutathione (bovine) [2] = molecular target: BSA-glutathione (bovine) (UniProt P02769); assay: ELISA, culture fluid on glutathione-BSA (column Glutathione)
BSA-glutathione (bovine) [3] = molecular target: BSA-glutathione (bovine) (UniProt P02769); assay: ELISA, subclone culture fluid on BSA-glutathione, average of triplicates

B2: monoclonal antibody 4A10 (antibody, V domains shown)
VH: EVQLQQSGPELVKPGALVKISCKASGYTFTSYDINWVKQRPGQGLEWIGWIYPGDGSTKYNEKFKGKATLTADKSSSTAYMQLSSLTSENSAVYFCARCGYAMDYWGQGTSVTVSS
VL: DVLMTQTPLSLPVSLGDQASISCRSSQSIVHSNGNTYLEWYLQKPGQSPKLLIYKVSNRFSGVPDRFSGSGSGTDFTLKISRAEAEDLGVYYCFQGSHVRYTFGGGTKLEIK
absorbance at 405 nm (absorbance at 405 nm) (BSA-glutathione (bovine) [2]): 0.4 | absorbance at 405 nm (absorbance at 405 nm) (BSA-glutathione (bovine) [1]): 0.078 | absorbance at 405 nm (absorbance at 405 nm) (BSA-glutathione (bovine) [3]): 0.322

B3: monoclonal antibody 2D5 (antibody, V domains shown)
VH: SGGGSVKPGGSLKLSCAASGFTFSSCAMSWVRQTPEKRLEWVATISSGGSYTYYPDSVKGRFTIFRHNAENTLYLQMSSLRSEDTAIYYCVRQDGYYGNYVWFAYWGQGTLVTVSA
VL: ELVMTQSPASLSASVGETVTITCRASENIYGYLAWYQQKQGKSPLPRVYNAKTLAEDVSSRVSGSGSGTQFSLKIRTSQPEDFGTYYCQHHYGTPYTFGGGTKLEIK
absorbance at 405 nm (absorbance at 405 nm) (BSA-glutathione (bovine) [1]): 0.09

B5: monoclonal antibody 1C11 (antibody, V domains shown)
VH: SGAELVKPGASVKLSCKTSGYTVTSYWMGWVKQRPGQGLEWIGNIYPDSGTTNYNEKFKNKATLTVDTFSSTVYMQLSSLTSEDSAVYYCARGVYSYYSYDVYAMDYWGQGTSVTVSS
VL: DLVLTQSPPSLAVSLGQRSTISCRSSQSIVHSNGNTYLHWYQQNPGQPPKLLIKYASNLESGVPARFSGSGSGTDFTLNIHPAEVEDSATYFCQHSWEIPPTFGGGTKLEIK
absorbance at 405 nm (absorbance at 405 nm) (BSA-glutathione (bovine) [1]): 0.094

Now from value to binder:

absorbance at 405 nm (absorbance at 405 nm) (BSA-glutathione (bovine) [1]): 0.028
B1: monoclonal antibody 5G4 (antibody, V domains shown)
VH: SVPARLKPGASVRISCKASAYSFTGYFMNWMKQSHGKTLEWIGRINPYNGDTFYNQKFKSKATVTVDKSSSTAHMELLSLTSEDSAVYYCGTQPLDYWGQGTTLTVSS
VL: DIQMTQSPSSLSASLGERVTLTCRASQDIGSSLNWLQLKPDGTIKRLIYATSGLDSGVPKRFSGSRSGSDYSLTINSPESEDFVDYYCLQCSNSPYTFGGGTKLEIK

absorbance at 405 nm (absorbance at 405 nm) (BSA-glutathione (bovine) [1]): 0.019
B4: monoclonal antibody 5B6 (antibody, V domains shown)
VH: B3 VH with C26R, F65S, L75F, D94T, V101E, T110L
VL: B1 VL with K107N

absorbance at 405 nm (absorbance at 405 nm) (BSA-glutathione (bovine) [1]): 0.168
B6: monoclonal antibody 23F8 (antibody, V domains shown)
VH: SGPELVKTGASVKISCKASGYSFTGYYMHWVKQSHGKSLEWIGYISCYNGATSYNQKFKGKATFTVDTSSSTAYMQFNSLTSEDSAVYYCARSGIYDVTTTLTTGAKAPLSQSP
VL: DIQMTQSPSSLSASLGGKVTITCKASQDINKYIAWYQHKPGKGPRLLIHYTSTLQPGIPSRFSGSGSGRDYSFSISNPEPEDIATYYCLQYDNSLFTFGSGTKLEIK
